Assay results as given in patent US20080064629A1, “Amphiregulin as a Protective Agent in Acute Hepatic Injury” (priority 2004, published 2008).

Legend:
male C57/BL6 mice [1] = assay: Acute liver damage induced by CCl4 in mice, treatment with AR; assay type: in vivo; settings: AR 9.5 μg/mouse i.p. 0.5 h before and 12 h after CCl4
Experimental: The experiments were carried out in compliance with the guidelines of the University of Navarra relating to the use of laboratory animals. Cirrhosis was induced with CCl4 in male Wistar rats as described elsewhere [(16) Castilla-Cortazar, I., Garcia, M., Muguerza, B., Quiroga, J., Perez, R., Santidrian, S., Prieto, J. 1997. Hepatoprotective effects of insulin-like growth factor I in rats with carbon tetrachloride-induced cirrhosis. Gastroenterology 113:1682-1691). Two-thirds PH or sham operations were performed on male Wistar rats (150 g) and male C57/BL6 mice (20 g) according to the method of Higgins and Andersen [(17) Higgins, G. M., Andersen, R. M. 1931. Experimental pathology of liver: restoration of liver of the white rat following partial surgical removal. Arch. Pathol. 12:186-202. (18) Latasa, M. U., Boukaba, A., García-Trevijano, E. R., Torres, L., Rodríguez, J. L., Caballería, J., Lu, S. C., López-Rodas, G., Franco, L., Mato, J. M., et al. 2001. Hepatocyte growth factor induces MAT2A expression and histone acetylation in rat hepatocytes. Role in liver regeneration. FASEB J. 10.1096/fj.00-0556fje. (19) Chen, L., Zeng, Y., Yang, H., Lee, T. D., French, S. W., Corrales, F. J., García-Trevijano, E. R., Avila, M. A., Mato, J. M., and Lu, S. C. 2004. Impaired liver regeneration in mice lacking methionine adenosyltransferase 1A. FASEB J. 18: 914-916]. Following sedation, in the sham operated animals the liver was exposed and then returned to the abdominal cavity. […] At the indicated timepoints, mice were subjected to blood sampling and the sera were analysed for alanine and aspartate aminotransferase (ALT and AST) as described elsewhere [(16) and (21) Lasarte, J. J., Sarobe, P., Boya, P., Casares, N., Arribillaga, L., López-Díaz of Cerio, A., Gorraiz, M., Borrás-Cuesta, F., Prieto, J. 2003. […]

rat hepatocytes = assay: DNA synthesis ([3H]thymidine incorporation) in cultured rat hepatocytes; assay type: cell-based; settings: increasing concentrations of AR, 30 h of treatment
Experimental: For DNA synthesis, rat hepatocytes were plated to a density of 3×10^4 cells/well in 96-well plates coated with collagen in MEM medium supplemented with 10% FCS. Five hours after plating, the medium was changed and cells were maintained in absence of serum for another 20 hours. DNA synthesis was assayed after 30 h of treatment with AR. A pulse of [^3H]thymidine was administered (1 μCi/well)(Amersham Biosciences, Piscataway, N.J., USA) 22 h after the addition of AR. Cells were harvested, and the incorporation of thymidine was determined with a scintillation counter. Evaluations were made of the effect of AR on DNA synthesis in the presence of MEK1 inhibitor, PD98059, PI-3K inhibitor, LY294002, p38 MAPK inhibitor, SB202190, JNK inhibitor, SP600125, and of the EGF-R tyrosine kinase activity inhibitor, PD153035—all supplied by Calbiochem.

male C57/BL6 mice [2] = assay: Acute liver damage induced by Jo2 antibody (Fas activation) in mice, treatment with AR; assay type: in vivo, mouse
Experimental: The experiments were carried out in compliance with the guidelines of the University of Navarra relating to the use of laboratory animals. Cirrhosis was induced with CCl4 in male Wistar rats as described elsewhere [(16) Castilla-Cortazar, I., Garcia, M., Muguerza, B., Quiroga, J., Perez, R., Santidrian, S., Prieto, J. 1997. Hepatoprotective effects of insulin-like growth factor I in rats with carbon tetrachloride-induced cirrhosis. Gastroenterology 113:1682-1691). Two-thirds PH or sham operations were performed on male Wistar rats (150 g) and male C57/BL6 mice (20 g) according to the method of Higgins and Andersen [(17) Higgins, G. M., Andersen, R. M. 1931. Experimental pathology of liver: restoration of liver of the white rat following partial surgical removal. Arch. Pathol. 12:186-202. (18) Latasa, M. U., Boukaba, A., García-Trevijano, E. R., Torres, L., Rodríguez, J. L., Caballería, J., Lu, S. C., López-Rodas, G., Franco, L., Mato, J. M., et al. 2001. Hepatocyte growth factor induces MAT2A expression and histone acetylation in rat hepatocytes. Role in liver regeneration. FASEB J. 10.1096/fj.00-0556fje. (19) Chen, L., Zeng, Y., Yang, H., Lee, T. D., French, S. W., Corrales, F. J., García-Trevijano, E. R., Avila, M. A., Mato, J. M., and Lu, S. C. 2004. Impaired liver regeneration in mice lacking methionine adenosyltransferase 1A. FASEB J. 18: 914-916]. Following sedation, in the sham operated animals the liver was exposed and then returned to the abdominal cavity. Acute liver damage was induced in male C57/BL6 mice (20 g) (n=3-5 per condition and time point) by means of a single intraperitoneal injection of CCl4 (1 μl/g body weight in olive oil) (Sigma, St. Louis, Mo., USA) or Jo2 monoclonal antibody (4 μg/mouse in saline solution) (BD PharMingen, San Diego, Calif., USA) [(5),(20) Martínez-Chantar, M. L., Corrales, F. J., Martínez-Cruz, A., García-Trevijano, E. R., Huang, Z. Z., Chen, L. X., Kanel, G., Avila, M. A., Mato, J. M., Lu, S. C. 2002. Spontaneous oxidative stress and liver tumors in mice lacking methionine adenosyltransferase 1A. FASEB J. 10.1096/fj.02-0078fje]. The controls received an equivalent volume of olive oil or saline solution. In the cases indicated, the mice received an intraperitoneal injection of human recombinant AR (9.5 μg/mouse) (Sigma) 6 and 0.5 h before and 3 h after Jo2 antibody, or 0.5 h before and 12 h after CCl4. At the indicated timepoints, mice were subjected to blood sampling and the sera were analysed for alanine and aspartate aminotransferase (ALT and AST) as described elsewhere [(16) and (21) Lasarte, J. J., Sarobe, P., Boya, P., Casares, N., Arribillaga, L., López-Díaz of Cerio, A., Gorraiz, M., Borrás-Cuesta, F., Prieto, J. 2003. A recombinant adenovirus encoding hepatitis C virus core and E1 proteins protects mice against cytokine-induced liver damage. Hepatology 37: 461-470]. Mice were sacrificed by cervical dislocation, and the livers were quickly frozen in liquid nitrogen, or fixed in formalin and embedded in paraffin for staining with hematoxylin and eosin (H&E).
Caspase-3 activity in mouse hepatocytes and liver tissue lysates was assessed using the Caspase-3/CPP32 colorimetric assay kit (BioVision, Palo Alto, Calif., USA). Cells in culture (5×10^5 per condition) were lysed directly in the lysis buffer supplied with the kit after the corresponding treatments. Liver tissue was homogenized using a Dounce homogenizer in lysis buffer, followed by centrifugation at 15,000 rpm during 10 min. […]

[3] = 24 h after injection of CCl4 (1 μl/g i.p.)

B1: amphiregulin (protein)
chain: SVRVEQVVKPPQNKTESENTSDKPKRKKKGGKNGKNRRNRKKKNPCNAEFQNFCIHGECKYIEHLEAVTCKCQQEYFGERCGEKSMKTHSMIDSSLSK
notes: polypeptide growth factor belonging to the EGF family, ligand of EGF receptor; human recombinant AR (Sigma) used
Male C57/BL6 mice [1]; 24 h after CCl4
  degree of histological damage (liver, H&E): decreased
Male C57/BL6 mice [1]; [3]
  serum level of ALT: clearly attenuated
  serum level of AST: clearly attenuated
Rat hepatocytes
  DNA synthesis, incorporation of [3H]thymidine to DNA: stimulating the incorporation of [^3H]thymidine to DNA in a dose-dependent manner
Male C57/BL6 mice [2]; 12 h after Jo2 (4 μg/mouse i.p.), AR 9.5 μg/mouse i.p. 6 and 0.5 h before and 3 h after Jo2
  serum transaminase (AST and ALT) elevation: strongly suppressed
Male C57/BL6 mice [2]; 12 h after Jo2, AR 9.5 μg/mouse i.p. 6 and 0.5 h before and 3 h after Jo2
  liver damage by histopathological analysis: almost completely avoided liver damage
Male C57/BL6 mice [2]; 12 h after Jo2 injection, AR 9.5 μg/mouse i.p.
  induction of caspase-3 activity in mouse liver extracts: strongly inhibited
Male C57/BL6 mice [2]; AR and Jo2 versus Jo2 alone, 6 h after injection of Jo2, 12 h (figure legend)
  levels of Bcl-xL protein in liver (Western blot): greater
Male C57/BL6 mice [2]; liver extracts after Jo2 injection, AR 9.5 μg/mouse i.p.
  rupture of caspase-3 (p17 subunit of active caspase-3, Western blot) in liver: avoided
